For the data set, the target named is Exotoxin A (Pseudomonas aeruginosa, UniProt P11439 26-638). As to the kind of experiment: SPR; […]; 0-2 uM analyte, 1:1 kinetic model; SPR (Biacore X100): 100 mM NaCl, 20 mM Tris-HCl, 2 mM MgCl2 (pH not stated), room temperature, 5 uL/min. The settings on record: protein: commercial; tags: none stated. (In general: In SPR one partner is held on a chip, and binding of the other changes the refractive index at the surface.)
Exotoxin A, sequence (P11439 26-638): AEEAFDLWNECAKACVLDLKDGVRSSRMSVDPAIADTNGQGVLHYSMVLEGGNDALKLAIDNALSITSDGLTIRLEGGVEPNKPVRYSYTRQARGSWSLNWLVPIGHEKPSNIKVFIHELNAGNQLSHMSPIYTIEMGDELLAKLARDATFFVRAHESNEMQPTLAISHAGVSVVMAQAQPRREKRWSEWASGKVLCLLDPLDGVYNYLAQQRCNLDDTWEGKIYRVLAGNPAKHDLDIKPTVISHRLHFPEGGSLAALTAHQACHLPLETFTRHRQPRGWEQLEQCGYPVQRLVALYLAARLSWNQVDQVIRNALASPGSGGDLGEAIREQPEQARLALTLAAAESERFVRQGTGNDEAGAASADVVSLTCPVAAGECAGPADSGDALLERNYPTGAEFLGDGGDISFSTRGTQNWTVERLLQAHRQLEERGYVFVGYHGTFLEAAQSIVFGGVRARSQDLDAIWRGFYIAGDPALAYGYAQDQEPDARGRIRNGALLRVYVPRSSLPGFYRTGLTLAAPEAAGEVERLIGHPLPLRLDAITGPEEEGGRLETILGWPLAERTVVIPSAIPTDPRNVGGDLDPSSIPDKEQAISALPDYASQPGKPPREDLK

B1: R14.33 (ssDNA)
DNA: TGTACCGTCTGAGCGATTCGTACCATAGGGTGCTTTTCAAGGCCACACGTTAGTGTAAGCCAGTCAGTGTTAAGGAGTGC
modifications: 5' amino-C6
On to B1, for which the Kd – broadly, a measure of binding affinity in units of concentration – came to 4.35 µM.
